Experimental data as given in patent US20250262210A1 (TRUSTEES OF COLUMBIA UNIVERSITY IN THE CITY OF NEW YORK, published 2025).

Assays:
Test in all cases: IP/MS, LZTR1 R810W-FLAG, U87
LAMB3 = molecular target: T1, LAMB3 (human, UniProt Q13751 18-1172)
T1 sequence (looked up): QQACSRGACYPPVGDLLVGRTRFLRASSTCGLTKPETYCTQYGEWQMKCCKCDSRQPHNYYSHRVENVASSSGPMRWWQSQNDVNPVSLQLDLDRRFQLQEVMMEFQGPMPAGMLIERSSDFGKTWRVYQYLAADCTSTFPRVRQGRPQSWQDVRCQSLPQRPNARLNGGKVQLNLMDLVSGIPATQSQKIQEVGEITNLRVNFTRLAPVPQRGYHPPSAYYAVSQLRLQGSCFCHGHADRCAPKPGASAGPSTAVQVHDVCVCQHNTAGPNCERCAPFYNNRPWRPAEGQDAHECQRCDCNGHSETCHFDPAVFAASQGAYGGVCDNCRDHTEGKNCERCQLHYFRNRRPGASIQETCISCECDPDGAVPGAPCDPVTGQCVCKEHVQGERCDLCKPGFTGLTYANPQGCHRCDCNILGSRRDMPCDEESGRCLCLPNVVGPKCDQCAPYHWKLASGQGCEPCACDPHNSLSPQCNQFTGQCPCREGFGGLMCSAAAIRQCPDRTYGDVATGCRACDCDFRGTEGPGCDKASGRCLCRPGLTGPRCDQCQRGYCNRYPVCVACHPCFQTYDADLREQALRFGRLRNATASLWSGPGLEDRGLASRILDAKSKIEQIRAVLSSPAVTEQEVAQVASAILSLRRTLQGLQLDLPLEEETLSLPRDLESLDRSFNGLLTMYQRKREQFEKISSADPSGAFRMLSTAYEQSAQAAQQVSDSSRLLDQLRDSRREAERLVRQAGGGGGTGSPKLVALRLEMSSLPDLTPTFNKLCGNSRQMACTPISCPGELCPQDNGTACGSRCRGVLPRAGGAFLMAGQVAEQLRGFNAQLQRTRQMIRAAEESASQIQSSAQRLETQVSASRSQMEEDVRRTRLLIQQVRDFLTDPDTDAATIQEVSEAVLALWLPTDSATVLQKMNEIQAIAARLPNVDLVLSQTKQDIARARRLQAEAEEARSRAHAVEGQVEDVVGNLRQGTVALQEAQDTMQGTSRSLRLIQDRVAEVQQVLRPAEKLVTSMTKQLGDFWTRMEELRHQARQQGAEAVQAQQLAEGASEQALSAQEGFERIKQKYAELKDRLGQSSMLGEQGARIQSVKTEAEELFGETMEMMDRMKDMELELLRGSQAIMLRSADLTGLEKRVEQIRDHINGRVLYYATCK
In short: (§1)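 Extracted peptides in 3% acetonitrile/0.1% formic acid ran on a 50 cm C18 column into an Orbitrap Fusion, with MaxQuant identification and spectral counting.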

PAPPA = PAPPA (human, UniProt Q13219 82-1627)
In short: as §1

MED24 = molecular target: T2, MED24 (human, UniProt O75448 1-989, limits assumed)
T2 sequence (looked up): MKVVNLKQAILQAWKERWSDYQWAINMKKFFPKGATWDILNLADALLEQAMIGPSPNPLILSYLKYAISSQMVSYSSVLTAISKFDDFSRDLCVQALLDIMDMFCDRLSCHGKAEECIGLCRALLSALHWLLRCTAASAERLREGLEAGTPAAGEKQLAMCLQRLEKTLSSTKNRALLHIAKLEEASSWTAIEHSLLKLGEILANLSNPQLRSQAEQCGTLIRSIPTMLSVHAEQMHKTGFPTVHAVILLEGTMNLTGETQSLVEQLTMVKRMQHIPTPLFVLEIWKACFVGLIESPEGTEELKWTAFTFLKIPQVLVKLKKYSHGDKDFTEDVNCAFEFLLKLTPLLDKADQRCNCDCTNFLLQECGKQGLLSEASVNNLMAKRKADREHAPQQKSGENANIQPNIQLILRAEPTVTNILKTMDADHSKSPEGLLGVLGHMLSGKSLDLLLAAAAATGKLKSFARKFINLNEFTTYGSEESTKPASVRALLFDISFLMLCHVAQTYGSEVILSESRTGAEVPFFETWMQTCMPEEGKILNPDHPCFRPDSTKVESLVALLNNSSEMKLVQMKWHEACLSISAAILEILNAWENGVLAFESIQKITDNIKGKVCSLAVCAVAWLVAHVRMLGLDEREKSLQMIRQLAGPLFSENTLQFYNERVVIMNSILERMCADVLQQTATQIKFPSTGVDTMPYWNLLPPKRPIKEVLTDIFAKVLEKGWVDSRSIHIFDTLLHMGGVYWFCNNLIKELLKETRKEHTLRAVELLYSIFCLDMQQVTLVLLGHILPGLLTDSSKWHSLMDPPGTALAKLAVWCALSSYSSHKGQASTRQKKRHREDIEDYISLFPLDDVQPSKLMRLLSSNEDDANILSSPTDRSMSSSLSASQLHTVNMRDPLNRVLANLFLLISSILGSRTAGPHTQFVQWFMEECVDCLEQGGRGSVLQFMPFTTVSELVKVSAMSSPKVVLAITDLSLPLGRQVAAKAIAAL
In short: as §1

Measured: binding result

Sequence of PAPPA (Q13219 82-1627 limits assumed): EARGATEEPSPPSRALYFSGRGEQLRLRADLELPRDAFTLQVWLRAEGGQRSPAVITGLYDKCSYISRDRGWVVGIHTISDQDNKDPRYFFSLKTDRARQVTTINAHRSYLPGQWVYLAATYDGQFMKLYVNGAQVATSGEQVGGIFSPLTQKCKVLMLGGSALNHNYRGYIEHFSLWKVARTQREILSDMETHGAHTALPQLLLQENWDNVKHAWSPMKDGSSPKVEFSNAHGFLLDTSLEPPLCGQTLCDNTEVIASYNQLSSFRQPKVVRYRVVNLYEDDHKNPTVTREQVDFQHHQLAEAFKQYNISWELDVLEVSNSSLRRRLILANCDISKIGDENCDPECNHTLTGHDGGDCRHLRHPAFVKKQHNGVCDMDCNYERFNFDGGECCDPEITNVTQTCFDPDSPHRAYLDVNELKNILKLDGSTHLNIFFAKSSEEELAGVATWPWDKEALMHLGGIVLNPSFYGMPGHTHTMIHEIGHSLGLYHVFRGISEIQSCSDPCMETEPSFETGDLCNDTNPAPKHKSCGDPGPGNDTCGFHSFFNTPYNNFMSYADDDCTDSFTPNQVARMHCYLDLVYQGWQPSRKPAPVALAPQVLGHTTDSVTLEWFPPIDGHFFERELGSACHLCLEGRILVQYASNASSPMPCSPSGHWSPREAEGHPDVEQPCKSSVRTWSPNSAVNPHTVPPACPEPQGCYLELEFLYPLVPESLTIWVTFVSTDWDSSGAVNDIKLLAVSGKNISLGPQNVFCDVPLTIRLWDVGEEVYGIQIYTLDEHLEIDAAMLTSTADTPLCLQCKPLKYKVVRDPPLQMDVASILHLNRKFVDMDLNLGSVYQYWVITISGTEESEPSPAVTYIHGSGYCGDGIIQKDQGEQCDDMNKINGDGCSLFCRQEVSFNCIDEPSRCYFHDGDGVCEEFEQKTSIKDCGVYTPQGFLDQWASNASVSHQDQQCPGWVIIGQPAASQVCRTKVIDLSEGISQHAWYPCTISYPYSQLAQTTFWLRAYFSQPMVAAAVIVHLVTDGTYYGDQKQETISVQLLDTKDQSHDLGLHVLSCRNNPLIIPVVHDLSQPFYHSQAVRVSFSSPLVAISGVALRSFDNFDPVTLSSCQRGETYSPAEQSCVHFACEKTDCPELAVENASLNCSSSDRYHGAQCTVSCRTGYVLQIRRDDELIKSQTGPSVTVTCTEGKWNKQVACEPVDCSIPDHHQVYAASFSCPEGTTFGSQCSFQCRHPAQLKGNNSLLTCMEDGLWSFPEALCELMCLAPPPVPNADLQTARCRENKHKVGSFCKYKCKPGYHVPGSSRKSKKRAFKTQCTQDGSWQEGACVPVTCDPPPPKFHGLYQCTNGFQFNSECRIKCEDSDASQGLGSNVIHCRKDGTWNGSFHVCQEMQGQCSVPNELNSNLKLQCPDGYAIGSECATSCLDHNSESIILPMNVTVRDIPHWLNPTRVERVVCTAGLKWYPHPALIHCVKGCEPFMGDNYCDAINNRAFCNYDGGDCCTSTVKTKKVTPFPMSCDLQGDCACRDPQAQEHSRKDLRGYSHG

B1: LZTR1 R810W-FLAG (other, human, UniProt Q8N653 1-840, looked up)
chain: MAGPGSTGGQIGAAALAGGARSKVAPSVDFDHSCSDSVEYLTLNFGPFETVHRWRRLPPCDEFVGARRSKHTVVAYKDAIYVFGGDNGKTMLNDLLRFDVKDCSWCRAFTTGTPPAPRYHHSAVVYGSSMFVFGGYTGDIYSNSNLKNKNDLFEYKFATGQWTEWKIEGRLPVARSAHGATVYSDKLWIFAGYDGNARLNDMWTIGLQDRELTCWEEVAQSGEIPPSCCNFPVAVCRDKMFVFSGQSGAKITNNLFQFEFKDKTWTRIPTEHLLRGSPPPPQRRYGHTMVAFDRHLYVFGGAADNTLPNELHCYDVDFQTWEVVQPSSDSEVGGAEVPERACASEEVPTLTYEERVGFKKSRDVFGLDFGTTSAKQPTQPASELPSGRLFHAAAVISDAMYIFGGTVDNNIRSGEMYRFQFSCYPKCTLHEDYGRLWESRQFCDVEFVLGEKEECVQGHVAIVTARSRWLRRKITQARERLAQKLEQEAAPVPREAPGVAAGGARPPLLHVAIREAEARPFEVLMQFLYTDKIKYPRKGHVEDVLLIMDVYKLALSFQLCRLEQLCRQYIEASVDLQNVLVVCESAARLQLSQLKEHCLNFVVKESHFNQVIMMKEFERLSSPLIVEIVRRKQQPPPRTPLDQPVDIGTSLIQDMKAYLEGAGAEFCDITLLLDGHPRPAHKAILAARSSYFEAMFRSFMPEDGQVNISIGEMVPSRQAFESMLRYIYYGEVNMPPEDSLYLFAAPYYYGFYNNRLQAYCKQNLEMNVTVQNVLQILEAADKTQALDMKRHCLHIIVHQFTKVSKLPTLWSLSQQLLLDIIDSLASHISDKQCAELGADI
notes: Stably expressed in U87 cells by lentivirus; also called LZTR1-FLAG-R810W; LZTR1 RW; not shown: FLAG tag
binds: all assays above
